The source of these data is article PMC7722742, “Structure of native glycolipoprotein filaments in honeybee royal jelly” (Nature Communications, 2020).

The labels stand for the following.
T1: MRJP1_4/apisimin4 hetero-octamer (native royal jelly filament) (Apis mellifera, UniProt O18330+Q8ISL8)
T1 construct: gene Mrjp1; native, purified from commercial royal jelly (Bio-Gelee Royale) at pH 4.0; N-glycosylated (Asn28, Asn144, Asn177); signal peptides removed; N-termini NILRGE (MRJP1) and KTSISV (apisimin); model residues 20-431 of MRJP1 and 33-76 of apisimin; 4:4 hetero-octamers stacked into helical filaments
T1 sequence (O18330 20-432): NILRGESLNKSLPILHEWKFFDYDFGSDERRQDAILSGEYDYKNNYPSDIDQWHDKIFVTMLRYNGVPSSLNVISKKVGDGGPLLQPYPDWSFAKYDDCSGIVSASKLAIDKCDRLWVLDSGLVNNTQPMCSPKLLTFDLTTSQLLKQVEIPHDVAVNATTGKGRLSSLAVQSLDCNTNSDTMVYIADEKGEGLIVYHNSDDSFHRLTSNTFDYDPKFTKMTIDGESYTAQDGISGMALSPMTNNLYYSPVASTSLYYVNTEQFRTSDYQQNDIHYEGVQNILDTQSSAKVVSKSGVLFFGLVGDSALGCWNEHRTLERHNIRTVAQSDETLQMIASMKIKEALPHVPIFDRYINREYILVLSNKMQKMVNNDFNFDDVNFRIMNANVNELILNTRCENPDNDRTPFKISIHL
T1 sequence (Q8ISL8 25-78): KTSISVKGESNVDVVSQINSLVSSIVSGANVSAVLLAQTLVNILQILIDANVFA

B1: major royal jelly protein 1 (natural protein, Apis mellifera, UniProt O18330 20-432, looked up)
chain: T1 sequence (O18330 20-432)
modifications: N-linked glycans at Asn28, Asn144 and Asn177 (modelled: one NAG at Asn28, two NAG at Asn144, two NAG plus a BMA at Asn177)
notes: major royal jelly protein 1 (MRJP1), honeybee Apis mellifera, native glycoprotein from royal jelly; the final model holds residues 20-431; Native protein; in the filament it stands with apisimin, 24-methylenecholesterol and further unassigned lipids; also called MRJP1; MRPJ1; source: purified from commercially available royal jelly as RJ filaments (ammonium sulfate precipitation, SEC at pH 4.0)
B2: apisimin (natural protein, Apis mellifera, UniProt Q8ISL8 25-78, looked up)
chain: T1 sequence (Q8ISL8 25-78)
notes: apisimin, small (5 kDa) royal jelly protein, honeybee Apis mellifera, native; the final model holds residues 33-76; Native protein, co-purified with MRJP1 in the filaments; also called apimisin; source: purified from commercially available royal jelly as RJ filaments (ammonium sulfate precipitation, SEC at pH 4.0)

Data set [1] addresses T1, MRJP1_4/apisimin4 hetero-octamer (native royal jelly filament). The data set is described as follows: cryo-EM helical reconstruction, […] A. It is filed as binding. Conditions: pH 4.0; native co-purified lipid, 8 per MRJP1_4/apisimin4 unit; built starting from crystal structure PDB 5yyl.
Data set [2] deals with the molecule itself. The data set is described as follows: cryo-EM structure; real-space helical reconstruction of native RJ filaments purified at pH 4.0 (10 mM formic acid-NaOH pH 4.0, 150 mM NaCl), graphene oxide-coated grids, 3.5 Å.
The target in the data set “apisimin” is B2. The data set is described as follows: quantitative Edman sequencing; purified RJ filaments (SEC fractions above 500 kDa, pH 4.0); six degradation cycles; molar ratio of the MRJP1 and apisimin residues. Conditions: both partners purified.
Data set [3] has as its target B1. The data set is described as follows: cryo-EM structure; real-space helical reconstruction of native RJ filaments purified at pH 4.0 (10 mM formic acid-NaOH pH 4.0, 150 mM NaCl), graphene oxide-coated grids, 3.5 Å. The settings on record: both partners purified.

Turning to `C=C(CC[C@@H](C)[C@H]1CC[C@H]2[C@@H]3CC=C4C[C@@H](O)CC[C@]4(C)[C@H]3CC[C@]12C)C(C)C` [24-methylenecholesterol], the “cryo-EM helical reconstruction, 3.5 A” value in data set [1] was “Apisimin is colored in red, 24-methylenecholesterol in blue, and N-glycans in silver”.

As to B1, the binding result in data set [2] is given as “binds”. For the same molecule, the “stoichiometry N” value with apisimin is 1.15 ± 0.32 molar ratio MRJP1/apisimin.

As to B2, the binding result in data set [3] and in data set [2] was “binds” each time.
